Results taken from paper PMC11071473 (bioRxiv, 2024).
“And” between values parts separate entries of the source, which are not always exact repeats. Identical values can stand only once.

Target: the molecule itself
Assay: cryo-EM structure

B1: human polymerase theta helicase domain (PolθH, residues 2–894) (domain or fragment, UniProt O75417 2-894, looked up)
chain: NLLRRSGKRRRSESGSDSFSGSGGDSSASPQFLSGSVLSPPPGLGRCLKAAAAGECKPTVPDYERDKLLLANWGLPKAVLEKYHSFGVKKMFEWQAECLLLGQVLEGKNLVYSAPTSAGKTLVAELLILKRVLEMRKKALFILPFVSVAKEKKYYLQSLFQEVGIKVDGYMGSTSPSRHFSSLDIAVCTIERANGLINRLIEENKMDLLGMVVVDELHMLGDSHRGYLLELLLTKICYITRKSASCQADLASSLSNAVQIVGMSATLPNLELVASWLNAELYHTDFRPVPLLESVKVGNSIYDSSMKLVREFEPMLQVKGDEDHVVSLCYETICDNHSVLLFCPSKKWCEKLADIIAREFYNLHHQAEGLVKPSECPPVILEQKELLEVMDQLRRLPSGLDSVLQKTVPWGVAFHHAGLTFEERDIIEGAFRQGLIRVLAATSTLSSGVNLPARRVIIRTPIFGGRPLDILTYKQMVGRAGRKGVDTVGESILICKNSEKSKGIALLQGSLKPVRSCLQRREGEEVTGSMIRAILEIIVGGVASTSQDMHTYAACTFLAASMKEGKQGIQRNQESVQLGAIEACVMWLLENEFIQSTEASDGTEGKVYHPTHLGSATLSSSLSPADTLDIFADLQRAMKGFVLENDLHILYLVTPMFEDWTTIDWYRFFCLWEKLPTSMKRVAELVGVEEGFLARCVKGKVVARTERQHRQMAIHKRFFTSLVLLDLISEVPLREINQKYGCNRGQIQSLQQSAAVYAGMITVFSNRLGWHNMELLLSQFQKRLTFGIQRELCDLVRVSLLNAQRARVLYASGFHTVADLARANIVEVEVILKNAVPFKSARKAVDEEEEAVEERRNMRTIWVTGRKGLTEREAAALIVEEARMILQQDLVEM
- stoichiometry N: 4 and 2
